# Data as given in patent US7422861B2, “Oligonucleotide transfection screening method” (priority 2000, dated 2008).
# Tested on: SKOV3 (ovarian carcinoma) cells
# Experiment: Apoptosis assay, annexin V and PI staining followed by FACS analysis (FIG. 1B)
# Format: cell-based
# Settings: SKOV3 cells from the same transfections
# Description: As a measure of cellular toxicity of the transfection agents, cells from the same transfections were stained with annexin V and PI, followed by FACS analysis (FIG. 1B). The fraction of cells positive for Annexin V, or for Annexin V and PI, are those in early or late stage apoptosis, respectively.
# Apoptosis Assay. Following transfection with antisense oligonucleotides and various transfection agents, cells were gently removed from plates using 0.05% trypsin and 2 mM EDTA, washed in a buffer containing 10 mM Hepes pH7.2, 140 mM NaCl, 5 mM CaCl2, and stained with Propidium iodide at a final concentration of 1 μg/ml and Annexin-V-FLUOS (Roche Molecular Biochemicals). Cells were then analyzed for staining with each marker using a Becton Dickinson FACScan.
row,SMILES,Staining with annexin V or PI (apoptosis)
1,COc1ccc(CCN(CC(N)=O)C(=O)CN(CCc2ccc(OC)cc2)C(=O)CN(CCN)C(=O)CN(CCc2ccc(OC)cc2)C(=O)CN(CCc2ccc(OC)cc2)C(=O)CN(CCN)C(=O)CN(CCc2ccc(OC)cc2)C(=O)CN(CCc2ccc(OC)cc2)C(=O)CN(CCN)C(=O)CCNC(=O)O[C@H]2CC[C@@]3(C)C(=CC[C@H]4[C@@H]5CC[C@H]([C@H](C)CCCC(C)C)[C@@]5(C)CC[C@@H]43)C2)cc1 [Cholesteroid 1],negligible staining
2,CCCCCCCCCCCCCC(=O)OCC(COP(=O)(O)OCCNCC(=O)N(CCN)CC(=O)N(CCc1ccc(OC)cc1)CC(=O)N(CCc1ccc(OC)cc1)CC(=O)N(CCN)CC(=O)N(CCc1ccc(OC)cc1)CC(=O)N(CCc1ccc(OC)cc1)CC(=O)N(CCN)CC(=O)N(CCc1ccc(OC)cc1)CC(=O)N(CCc1ccc(OC)cc1)CC(N)=O)OC(=O)CCCCCCCCCCCCC (centres unmarked) [Lipitoid 1],negligible staining
